Measured values published in article doi:10.1101/2020.08.27.270991 (bioRxiv, 2020).
One block for each binder: values may come before it.

Assays:
[1] = molecular target: the molecule itself; assay: cryo-EM structure
[2] = molecular target: the molecule itself; assay: cross-linking
[3] = molecular target: full-length Thermus thermophilus MgtE (Thermus thermophilus, UniProt Q5SMG8); assay: ITC

B1: full-length Thermus thermophilus MgtE (natural protein, UniProt Q5SMG8 1-450, looked up)
chain: MEEKLAVSLQEALQEGDTRALREVLEEIHPQDLLALWDELKGEHRYVVLTLLPKAKAAEVLSHLSPEEQAEYLKTLPPWRLREILEELSLDDLADALQAVRKEDPAYFQRLKDLLDPRTRAEVEALARYEEDEAGGLMTPEYVAVREGMTVEEVLRFLRRAAPDAETIYYIYVVDEKGRLKGVLSLRDLIVADPRTRVAEIMNPKVVYVRTDTDQEEVARLMADYDFTVLPVVDEEGRLVGIVTVDDVLDVLEAEATEDIHKLGAVDVPDLVYSEAGPVALWLARVRWLVILILTGMVTSSILQGFESVLEAVTALAFYVPVLLGTGGNTGNQSATLIIRALATRDLDLRDWRRVFLKEMGVGLLLGLTLSFLLVGKVYWDGHPLLLPVVGVSLVLIVFFANLVGAMLPFLLRRLGVDPALVSNPLVATLSDVTGLLIYLSVARLLLEAV
stoichiometry N [1]: 2

B2: MgtE double cysteine mutant T336C/L421C (natural protein, Thermus thermophilus, UniProt Q5SMG8 1-450, looked up)
chain: MEEKLAVSLQEALQEGDTRALREVLEEIHPQDLLALWDELKGEHRYVVLTLLPKAKAAEVLSHLSPEEQAEYLKTLPPWRLREILEELSLDDLADALQAVRKEDPAYFQRLKDLLDPRTRAEVEALARYEEDEAGGLMTPEYVAVREGMTVEEVLRFLRRAAPDAETIYYIYVVDEKGRLKGVLSLRDLIVADPRTRVAEIMNPKVVYVRTDTDQEEVARLMADYDFTVLPVVDEEGRLVGIVTVDDVLDVLEAEATEDIHKLGAVDVPDLVYSEAGPVALWLARVRWLVILILTGMVTSSILQGFESVLEAVTALAFYVPVLLGTGGNTGNQSACLIIRALATRDLDLRDWRRVFLKEMGVGLLLGLTLSFLLVGKVYWDGHPLLLPVVGVSLVLIVFFANLVGAMLPFLLRRLGVDPACVSNPLVATLSDVTGLLIYLSVARLLLEAV
binding result [2]: binds

Kd [3]: 253 ± 71.1 nM
B3: Fab antibody fragment Fab705 (Fab, V domains shown)
VH: EVKLQESGVELVKPGASVKISCKASGYSFTGYNMNWVKQSHGKSLEWIGNISPYYGTSIYNQNFKGKATLTVDRSSSTAYMQLNSLTSEDSAVYYCARGESFSNYEGYYAMDYWGQGTSVIVSS
VL: DVLMTQTPLSLPVSLGDQASISCRSSQSLVHSDGNTYLHWYLQKPGQSPKLLIYKVSNRFSGVPDRFSGSGSGTDFTLKISRVEAEDLGVYFCSQSTHVPWTFGGGTKLEIK
